Source: paper PMC2676576

Experiments:
[1] = target: STAM(300-387) of ESCRT-0 core construct b (human) (UniProt Q92783); test: SDS-PAGE and mass spectrometry of dissolved crystals
[2] = target: recombinant full-length human STAM of the full-length ESCRT-0 complex (human) (UniProt Q92783); test: SEC-MALS
[3] = target: recombinant full-length human STAM of the full-length ESCRT-0 complex (human) (UniProt Q92783); test: AUC

Sequence of recombinant full-length human STAM of the full-length ESCRT-0 complex (human) (Q92783 whole entry, one chain of several): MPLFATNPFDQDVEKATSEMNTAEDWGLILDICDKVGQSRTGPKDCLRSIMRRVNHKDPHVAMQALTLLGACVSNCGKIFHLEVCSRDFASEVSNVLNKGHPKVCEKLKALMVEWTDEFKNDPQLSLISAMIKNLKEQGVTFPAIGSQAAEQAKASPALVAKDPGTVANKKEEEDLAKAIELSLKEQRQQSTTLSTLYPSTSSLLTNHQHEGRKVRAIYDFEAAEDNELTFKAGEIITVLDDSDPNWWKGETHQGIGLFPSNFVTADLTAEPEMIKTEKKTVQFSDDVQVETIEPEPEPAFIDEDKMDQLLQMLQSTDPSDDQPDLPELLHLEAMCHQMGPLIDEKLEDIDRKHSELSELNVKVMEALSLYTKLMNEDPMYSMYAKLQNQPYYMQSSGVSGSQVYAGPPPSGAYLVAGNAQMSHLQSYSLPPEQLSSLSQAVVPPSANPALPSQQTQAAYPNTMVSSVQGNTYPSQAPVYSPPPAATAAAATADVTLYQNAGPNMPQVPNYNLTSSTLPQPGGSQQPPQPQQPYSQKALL
Sequence of Hrs(398-557) of ESCRT-0 core construct b (O14964 398-514): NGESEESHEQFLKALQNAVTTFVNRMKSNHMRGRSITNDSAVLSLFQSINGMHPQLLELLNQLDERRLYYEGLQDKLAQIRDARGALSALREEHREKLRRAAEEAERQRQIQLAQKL

Substance	stoichiometry N [1]	stoichiometry N [2]	stoichiometry N [3]
Hrs(398-557) of ESCRT-0 core construct b (from UniProt O14964 398-557) (domain or fragment)	1 Hrs:STAM	–	–
recombinant full-length Hrs (mouse Hrs gene) of the full-length ESCRT-0 complex (from UniProt Q99LI8 1-775) (natural protein)	–	1 Hrs:STAM	1 Hrs:STAM
